This is an account of results in publication PMC3627603 (Nucleic Acids Research, 2013).

Sequences and labels used below:
T1: H6-Mcm10 full length (FL), recombinant (human, UniProt Q7L590-2 1-874)
T1 sequence (looked up): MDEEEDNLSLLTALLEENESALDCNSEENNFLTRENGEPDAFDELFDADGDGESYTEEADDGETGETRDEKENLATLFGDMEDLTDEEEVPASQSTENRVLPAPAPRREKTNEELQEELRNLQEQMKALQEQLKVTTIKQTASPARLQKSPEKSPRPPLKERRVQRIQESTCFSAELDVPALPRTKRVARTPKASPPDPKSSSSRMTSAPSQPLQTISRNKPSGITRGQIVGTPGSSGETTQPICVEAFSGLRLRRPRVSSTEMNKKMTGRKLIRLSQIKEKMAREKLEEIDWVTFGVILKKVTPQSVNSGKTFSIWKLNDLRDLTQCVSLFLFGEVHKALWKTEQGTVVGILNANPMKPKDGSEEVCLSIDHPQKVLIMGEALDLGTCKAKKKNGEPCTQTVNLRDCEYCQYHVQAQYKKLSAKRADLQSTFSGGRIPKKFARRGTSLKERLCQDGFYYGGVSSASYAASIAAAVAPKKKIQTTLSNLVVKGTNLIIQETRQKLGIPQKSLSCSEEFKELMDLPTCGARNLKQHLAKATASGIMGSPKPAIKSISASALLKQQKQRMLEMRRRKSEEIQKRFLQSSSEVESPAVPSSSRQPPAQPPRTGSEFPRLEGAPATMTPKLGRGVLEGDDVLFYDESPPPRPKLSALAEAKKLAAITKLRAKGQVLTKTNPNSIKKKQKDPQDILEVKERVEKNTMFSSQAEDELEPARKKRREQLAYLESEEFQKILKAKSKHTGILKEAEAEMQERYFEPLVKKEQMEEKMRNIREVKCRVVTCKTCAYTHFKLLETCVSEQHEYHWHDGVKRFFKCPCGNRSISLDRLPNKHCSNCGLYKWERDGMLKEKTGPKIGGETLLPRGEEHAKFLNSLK

B1: GST-SIRT1 (enzyme, human, UniProt Q96EB6 1-747, looked up)
chain: MADEAALALQPGGSPSAAGADREAASSPAGEPLRKRPRRDGPGLERSPGEPGGAAPEREVPAAARGCPGAAAAALWREAEAEAAAAGGEQEAQATAAAGEGDNGPGLQGPSREPPLADNLYDEDDDDEGEEEEEAAAAAIGYRDNLLFGDEIITNGFHSCESDEEDRASHASSSDWTPRPRIGPYTFVQQHLMIGTDPRTILKDLLPETIPPPELDDMTLWQIVINILSEPPKRKKRKDINTIEDAVKLLQECKKIIVLTGAGVSVSCGIPDFRSRDGIYARLAVDFPDLPDPQAMFDIEYFRKDPRPFFKFAKEIYPGQFQPSLCHKFIALSDKEGKLLRNYTQNIDTLEQVAGIQRIIQCHGSFATASCLICKYKVDCEAVRGDIFNQVVPRCPRCPADEPLAIMKPEIVFFGENLPEQFHRAMKYDKDEVDLLIVIGSSLKVRPVALIPSSIPHEVPQILINREPLPHLHFDVELLGDCDVIINELCHRLGGEYAKLCCNPVKLSEITEKPPRTQKELAYLSELPPTPLHVSEDSSSPERTSPPDSSVIVTLLDQAAKSNDDLDVSESKGCMEEKPQEVQTSRNVESIAEQMENPDLKNVGSSTGEKNERTSVAGTVRKCWPNRVAKEQISRRLDGNQYLFLPPNRYIFHGAEVYSDSEDDVLSSSSCGSNSDSGTCQSPSLEEPMEDESEIEEFYNGLEDEPDVPERAGGAGFGTDGDDQEAINEAISVKQEVTDMNYPSNKS
B2: His-tagged Mcm10 C-terminal domain (CTD, aa 630-874) (domain or fragment, human, UniProt Q7L590-2 630-874, looked up)
chain: GVLEGDDVLFYDESPPPRPKLSALAEAKKLAAITKLRAKGQVLTKTNPNSIKKKQKDPQDILEVKERVEKNTMFSSQAEDELEPARKKRREQLAYLESEEFQKILKAKSKHTGILKEAEAEMQERYFEPLVKKEQMEEKMRNIREVKCRVVTCKTCAYTHFKLLETCVSEQHEYHWHDGVKRFFKCPCGNRSISLDRLPNKHCSNCGLYKWERDGMLKEKTGPKIGGETLLPRGEEHAKFLNSLK

For assay [1], the target named is T1, H6-Mcm10 full length (FL), recombinant. Put plainly: pull-down.
The assay “GST-SIRT1” has as its target B1. The assay is described as follows: pull-down.

Consider B1, for which the binding result in assay [1] is recorded as “binds”.
For B2, the binding result in the assay with GST-SIRT1 is listed as “binds”.
